Assay results from the DeepSol protein solubility set.

Assay: soluble on expression in E. coli; label from the status in PepcDB or PDB records

Row | Sequence | soluble on expression in E. coli
1 | MAHHHHHHMLRRVPLRLARRKHGQTAWSPNNTSSGAAPTNGITAQEALQIAYRPMPPANTVEYEEDFGPNMMIHREFVSSRHRTRMASDISALAYSDVELARARQQLAGVMNRERRGALVGSGGEAGDRVLFNSDVDETTREVKSARFLFNEQRMRFCDRFQTFFRERIERWAAGDAGAGEDDHPYFSLMEACAVLHGCDTVDAREVYYRRFLGLDLDTLEAEEAALRARAADAAEVGARLTRGEAGAGGGALVAAAAGGAGGAGSATDVVQDIIDALPPLFPQPAAAEVGEASEAVADAPPARARAAGAGELPPATAAAPAHLAEDAAPLYKAYLAHARGESPVGSYDVTTLGAHAAHAERRRWRSLMDKIAAEDYHELTAAELEDAHVLNGQLHTVKFFDLKVGDTVREIVQLLERETGSSASGDRDVPVEMSPTHPERRV | not soluble
2 | MRWNICVVGAGKIGQMIAALLKTSSNYSVTVADHDLAALAVLNRMGVATKQVDAKDEAGLAKALGGFDAVISAAPFFLTPIIAKAAKAAGAHYFDLTEDVAATNAVRALAEDSQTAFMPQCGLAPGFVGIAGAALAAEFDEIDSLHMRVGALPLYPTNALKYNLTWSTDG | not soluble
3 | MAGDPMKVFVVNLDKDKDKKEKIKNECRNAELDYEIISAVDGRELSYNELKSKVHPVSLNYLSKGEIGCVLSHQRIYKRILDDDIDYALILEDDVELSQDIKVFLKEFLSVKDKNKGDVFLLYPSGLRFLNRRINVSHDYFFYEAYNSSCAHGYIISNKAAKKLIRINTPIILVADAWLWFYQISLLKVYVLNKELVRAYDVDKSLSTIETERSLLLDEKEKHQMQIIKKQPLYYLIKYYHKYIRRLFINKDKLEHHHHHH | soluble
4 | SGGGGGVLWDTPSPKEYKKGDTTTGVYRIMTRGLLGSYQAGAGVMVEGVFHTLWHTTKGAALMSGEGRLDPYWGSVKEDRLCYGGPWKLQHKWNGQDEVQMIVVEPGKNVKNVRTKPGVFKTPEGEIGAVTLDFPTGTSGSPIVDKNGDVIGLYGNGVIMPNGSYISAIVQGKRMDEPIPAGFEPEMLGSRSHHHHHH | soluble
5 | MFKSLSQLFRPRVEALGLEIGASALKLVEVSGNPPALKALASRPTPPGLLMEGMVAEPAALAQEIKELLLEARTRKRYVVTALSNLAVILRPIQVPKMPLKEMEEAVRWEAERYIPFPIDEVVLDFAPLTPLSEVQEGEQVQVMVAAARQEAVAGVLEALRGAGLVPVVLDVKPFAGLYPLEARLAEEPDRVFLALDIGAESTSLVLLRGDKPLAVRVLTLSGKDFTEAIARSFNLDLLAAEEVKRTYGMATLPTEDEELLLDFDAERERYSPGRIYDAIRPVLVELTQELRRSLEFFRIQLEEASPEVGYLLGGGSKLRGLASLLTDTLGVNFEPVNPWEAVAVDPKRFESEQLQEIGPEFAVALGLALRGVEPLD | soluble
6 | GSHMGFLSGKRILVTGVASKLSIAYGIAQAMHREGAELAFTYQNDKLKGRVEEFAAQLGSDIVLQCDVAEDASIDTMFAELGKVWPKFDGFVHSIGFAPGDQLDGDYVNAVTREGFKIAHDISSYSFVAMAKACRSMLNPGSALLTLSYLGAERAIPNYNVMGLAKASLEANVRYMANAMGPEGVRVNAISAGPIRTLAASGIKDFRKMLAHCEAVTPIRRTVTIEDVGNSAAFLCSDLSAGISGEVVHVDGGFSIAAMNELELK | soluble
7 | MGSDKIHHHHHHMDISGRDVETRLTLAREFMSGVDELPTVPDIVLRIAGKLNDPDVAIDEVADLLLQDQVLTARVVHLANSPLYSAARPISSIRDAVIYLGLDLLREAIFTCAIVDLFKTGKGPLNRSTLWAHSLGVARIAKLIAERTGFLNPVNVYVAGLLHDVGEVFINFFRGKEFSQVVTLVDEEKITFGQAEERLFGTSHCEVGFALAKRWSLNEFICDTILYHHDIEAVPYKQAAIVAMVAFADEYCTLRRLGFEGHKPVDSVRTLLENHPSWGVIRRSLGGSDFDEKLIVAELDSSIVEIRAAVDELFLL | not soluble
8 | MYKPTERNAQNSLAMMNYAYDTSLQETMILTEAFHTDRVICDNGSLYKFIWVQEGKLTLIVDHVEIEMEQDEIISVSNLHRTEFKNVSGRYLALLFNENFYGIYKHEKEVSCSGVLFNGTSGIVHLRLPIADSELLHEVVDRMVTEYILRDNLQGEMLRLLLKRFIILCTRLARKQLSGFPVNEKGFDIIQRYYVLVDNHFKEKKQVQAYAALLHRSPKTLSNLFAAYGMPSPLKIIQERVVTEAKRLLLHTSHSIKEISVILGFESVGTFSRFFKNMTGENTSAYRKRLQ | not soluble
9 | KKPDTLWVNKRVVKCPEEVAQQLAVEAGSDVFLLKRIRYVDEEAVSIEESWVPAHLIHDVDAIGISLYDYFRSQHIYPQRTRSRVSARMPDAEFQSHIQLDSKIPVLVIKQVALDQQQRPIEYSISHCR | not soluble
10 | MNEDNSPSSNEGKKEKAEGPSRKSFFERLGQLFQGEPKDRQELVDVIRDSEVNDLIDHDTRDMLEGVMEISEMRVRDIMIPRSQMVTVERTDDLDTLIALITDAQHSRYPVISEDKDHVEGILLAKDLLKYLGSGSNPFDIEEVIRPAVVVPESKRVDRLLKEFREERYHMAIVVDEFGGVSGLVTIEDILEEIVGDIEDEFDESEETDIRKLSKHTFAVRALTTIEEFNETFGTNFSDEEVDTVGGMVMTAFGHLPSRGELVEIEGYNFKVTAADNRRVIQLQVTIPDEETLVEATQE | not soluble
11 | MAHHHHHHMGTLEAQTQGPGSMNVLVIGSGGREHSMLHHIRKSTLLNKLFIAPGREGMSGLADIIDIDINSTIEVIQVCKKEKIELVVIGPETPLMNGLSDALTEEGILVFGPSKAAARLESSKGFTKELCMRYGIPTAKYGYFVDTNSAYKFIDKHKLPLVVKADGLAQGKGTVICHTHEEAYNAVDAMLVHHKFGEAGCAIIIEEFLEGKEISFFTLVDGSNPVILGVAQDYKTIGDNNKGPNTGGMGSYSKPNIITQEMEHIIIQKIIYPTIKAMFNMNIQFRGLLFAGIIIKKNEPKLLEYNVRFGDPETQSILPRLNSDFLKLLSLTAKGKLGNESVELSKKAALCVVVASRGYPGEYKKNSIINGIENIEKLPNVQLLHAGTRREGNNWVSDSGRVINVVAQGENLASAKHQAYAALDLLDWPDGIYRYDIGSCAL | soluble
12 | MGSDKIHHHHHHMIQVLNLTTPETIKNYLHEALGKIEPFEQCILLDYPDHANIGDNLIWLGELLYLHNTRQSQITYNASVENFSVQEMDKCKSSCEIPIFLHGGGNLGDLWLKFQNFREYIISEYKENPIIIFPQSIYFQEEDNLIKAARIFNSHPNLTIFVRDNYSYQLATNYFSNCRIIKSPDAAFQLVNTPGIAAAYQNKSSILYHFRNDKELNLNQAGSPHTLDLPNLIVEDWASYKYESDSYKELPHNAVIQSFARVFHGWEQGKLFPDEWITRQIWKYFHPYTTAFSQSYNPESHRKAWSYMYQGVYQFKQHRLIITNRLHGHILSTLMGIPHIFLPNSYHKNEAFYEAWTYQIPFCRFVKDPEKIADTVRELIEISEIAKN | not soluble
13 | GPGSMTYRYDYRPPNGGVEGSTVLFEPVAREHRATFSCGGGYGRNVMPEIPRPMVLPLVDYLDSFDKRFIEDWDEITTVQMVKLATLLNYEELLNLASAKLAVYLSEKSIEGLRAFLGVENDFKAEEEAELRKEYGRMSEEK | soluble
14 | GSSHCRFYENKYPEIDDIVMVNVQQIAEMGAYVKLLEYDNIEGMILLSELSRRRIRSIQKLIRVGKNDVAVVLRVDKEKGYIDLSKRRVSSEDIIKCEEKYQKSKTVHSILRYCAEKFQIPLEELYKTIAWPLSRKFGHAYEAFKLSIIDETVWEGIEPPSKDVLDELKNYISKR | soluble
15 | MKAVTYDTDSELAYIYVLPPKKNRNVRTEELRVNDCLLLDISQDGKIAGFECFGEAAHLCAPFAGKSRLYVKDSDGYHFRVCQHASVRSCYTVYRVTFCFSDGDYQEFAGFDLDGTMYHSAFLQRLTEKLEHHHHHH | not soluble
16 | MAVLAALLRSGARSRSPLLRRLVQEIRYVERSYVSKPTLKEVVIVSATRTPIGSFLGSLSLLPATKLGSIAIQGAIEKAGIPKEEVKEAYMGNVLQGGEGQAPTRQAVLGAGCDGGRWDGEHVHVPYVMNRGSTPYGGVKLEDLIVKDGLTDVYNKIHMGSCAENTAKKLNIARNEQDAYAINSYTRSKAAWEAGKFGNEVIPVTVTVKGQPDVVVKEDEEYKRVDFSKVPKLKTVFQKENGTVTAANASTLNDGAAALVLMTADAAKRLNVTPLARIVGKARRGGSHL | not soluble
17 | MARMNRPAPVEVTYKNMRFLITHNPTNATLNKFIEELKKYGVTTIVRVCEATYDTTLVEKEGIHVLDWPFDDGAPPSNQIVDDWLSLVKIKFREEPGCCIAVHSVAGLGRAPVLVALALIEGGMKYEDAVQFIRQKRRGAFNSKQLLYLEKYRPKMRLRFKDSNGHRNNCCIQ | soluble
18 | MGHHHHHHSHIPFDYIVEKTVSTGVLVDVIGALLEVGNLTEDYRGLKLPFKIMDQYKEVLQCEAHNDQALEFQRFFQRLTGPQNVIALVSWRLSGIYKLKTLSNDPISKVIANPDIPEVEEIRVVVY | not soluble
19 | MASMTGGQQMGRGSMQNPSVTISVNANAGRHPINPAVYGLAYATTATLADLNVPLHRYGGNNTSRYNWQLNADNRGADWYFESIGEASSVAGERGDTFIANSQAAGAQAMITIPTIGWVARLGANRSKLASFSIAKYGAQSGNDWQWFPDAGNGVLTSGQNVTGNNPNDANTLVDSTFQQGWAQHLVSQWGTAAGGGLRYYILDNEPSIWFSTHRDVHPVGPTMDEIRDKMLDYGAKIKTVDPSALIVGPEEWGWSGYTLSGYDQQYGGLHGWSFMPDRNNHGGWDYLPWLLDQLRQNNLSTGRRLLDVFSVHYYPQGGEFGNDTSSAMQLRRNRSTRSLWDPNYIDETWINDKVQLIPRLKNWVSTYYPGTLTAITEYNWGAESHINGATTQADILGIFGREGLDMAARWTTPDTATPTYKAIKMYRNYDGNKSAFGDTSVTATAPNPDNVSAFAAVRSSDGALTVMVINKYLSGNTPATINLSNFTAQAQAQVWQLTAANTINHLSNVSLSGSSLSLTLPAQSVTLLVIPAST | soluble
20 | ANTAFVSSACNTQKIPSGSPFNRNLRAMLADLRQNTAFSGYDYKTSRAGSGGAPTAYGRATCKQSISQSDCTACLSNLVNRIFSICNNAIGARVQLVDCFIQYEQRSF | soluble
21 | MAIAYFIPDQAQLLARSYQQNGQQTAASPRTTATAAAPSQQQQQSQQQQQQQRHHHQQQRPQFRANISVPLGSQQGSMTMSEFGCWDLLAQIFCYALRIYSYSSSQRQPTVIQISFEISSGGQNNDEDDVTDATSKEN | not soluble
22 | MGSDKIHHHHHHMDIGDKGEMLSLLKALVNIDSGSYYKEGVDRVGRMLTNAFKQIGFKVAIFKQERYGDHLLFTHPHAFDPKILLVAHMDTVFPVGTAAARPFQLIGTRAYGPGVIDMKGSLVACLYAIKALVGAQSPAVKQVAVLMTSDEEIGAPSGREIIEKIGVGKKAVLVMEPARKDGSLVTARRGGGRYTLNVTGRAAHSGVEPEKGRSAIEELAHKIMKLHALSDYKSGISVNVGVIEGGTAVNTVADRAKAKVDIRISRLEQAEPLDRDIRRICGTPDVDGTTIELKGGITRPPMERNAQTVALFQLIQQVASTIGLELTETATGGSSDASFTSALGIPTIDGMGPVGGFPHSEKEYLRVDTMQERTLLLAKVIERLSE | not soluble
23 | MSLQNKTVFVGISGGVDSAVSALLLKQQYREVIGIFMECWDNTLNNDQLGHRAFNEHKSGCSSKEDFREAQAIAQLLGIKLIKQNLVEPY | soluble
